This is an account of results in IntAct's records for PubMed 26167883.

The test has as its target mcm2_human MCM2 (UniProt P49736).

“Histone H3.1 (Homo sapiens) (from UniProt P68431) R64A;K65A”: the “effect of a mutation on the interaction” value is “decreasing interaction strength”.
